Experimental data published in patent publication US20130078247A1 (Boehringer Ingelheim, published 2013).

T1: recombinant human DLL1 (Alexis) (human, UniProt O00548 18-545, limits assumed)
T1 construct: also called hDLL1; rhDLL1
T1 sequence (looked up): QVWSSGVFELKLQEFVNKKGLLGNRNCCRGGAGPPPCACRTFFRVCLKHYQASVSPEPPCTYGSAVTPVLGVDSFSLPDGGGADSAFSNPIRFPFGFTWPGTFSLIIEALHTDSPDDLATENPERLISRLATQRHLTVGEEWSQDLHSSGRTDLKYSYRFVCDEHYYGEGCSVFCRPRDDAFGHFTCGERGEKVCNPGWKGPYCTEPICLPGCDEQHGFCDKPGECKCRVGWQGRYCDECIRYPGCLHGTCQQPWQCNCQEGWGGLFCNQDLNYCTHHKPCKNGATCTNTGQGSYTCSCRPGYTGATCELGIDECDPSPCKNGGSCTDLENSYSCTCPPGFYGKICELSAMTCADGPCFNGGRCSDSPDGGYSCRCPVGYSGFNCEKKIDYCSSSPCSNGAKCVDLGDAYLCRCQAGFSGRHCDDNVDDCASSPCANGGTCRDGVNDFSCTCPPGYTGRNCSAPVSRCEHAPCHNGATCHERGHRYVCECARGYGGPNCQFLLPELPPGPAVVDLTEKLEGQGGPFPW

T2: human DLL1 (human, UniProt O00548 18-545, limits assumed)
T2 construct: also called hDLL1; rhDLL1
T2 sequence (looked up): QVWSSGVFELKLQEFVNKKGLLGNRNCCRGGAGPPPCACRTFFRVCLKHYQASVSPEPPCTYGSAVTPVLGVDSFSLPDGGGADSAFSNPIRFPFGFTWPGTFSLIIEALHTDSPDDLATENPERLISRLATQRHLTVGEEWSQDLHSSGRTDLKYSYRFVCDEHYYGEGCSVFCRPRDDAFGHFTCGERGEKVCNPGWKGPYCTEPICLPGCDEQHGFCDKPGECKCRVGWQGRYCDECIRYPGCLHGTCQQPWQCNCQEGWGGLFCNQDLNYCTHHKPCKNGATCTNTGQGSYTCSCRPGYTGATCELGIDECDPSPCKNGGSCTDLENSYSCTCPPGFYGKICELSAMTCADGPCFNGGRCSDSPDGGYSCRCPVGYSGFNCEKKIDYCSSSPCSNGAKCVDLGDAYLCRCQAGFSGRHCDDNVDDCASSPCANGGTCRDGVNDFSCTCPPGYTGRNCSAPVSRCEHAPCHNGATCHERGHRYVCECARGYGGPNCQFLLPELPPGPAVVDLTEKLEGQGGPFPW


Tests used:
[1] = target: T1, recombinant human DLL1 (Alexis); test: rhDLL1/rhJAG1 binding ELISA
[2] = target: T3, recombinant human Jagged-1 (Alexis) (human, UniProt P78504 34-1067, limits assumed); test: rhDLL1/rhJAG1 binding ELISA
T3 construct: also called hJagged-1; hJAG1

human DLL1 = target: T2, human DLL1; test: binding ELISA, coated hDLL1
Method: (§1) Absence of binding to homologous ligands human DLL1 and human Jagged-1 is assessed via solid phase binding assay (ELISA). In brief, human DLL1 (Alexis, San Diego, Calif., USA) and human Jagged-1 (Alexis, San Diego, Calif., USA) are coated overnight at 4° C. at 1 μg/mL in a 96-well MaxiSorp plate (Nunc, Wiesbaden, Germany). Wells are blocked with a casein solution (1% in PBS). VHHs are applied as dilution series and binding is detected using a mouse anti-myc (Roche) and an anti-mouse-AP conjugate (Sigma, St. Louis, Mo., USA).

human Jagged-1 = target: T4, human Jagged-1 (human, UniProt P78504 34-1067, limits assumed); test: binding ELISA, coated hJagged-1
T4 construct: also called hJag-1; hJAG1
Method: as §1

recombinant mouse DLL4 = target: T5, recombinant mouse DLL4 (mouse, UniProt Q9JI71 27-532); test: ProteOn off-rate screen, periplasmic extract, mDLL4 on chip
T5 construct: extracellular domain; also called rmDLL4; mDLL4; not shown: C-terminal His tag
Method: (§2) In a first cycle, amino acid substitutions are introduced randomly in both framework (FW) and complementary determining regions (CDR) using the error-prone PCR method. […] After a polish step, PCR products are inserted via unique restriction sites into a vector designed to facilitate phage display of the VHH library. […] No selections on murine DLL4 are included as (conservation of) cross-reactivity is assessed at the screening level. Individual mutants are produced as recombinant protein using an expression vector derived from pUC119, which contains the LacZ promoter, a resistance gene for ampicillin, a multiple cloning site and an ompA leader sequence (pAX50). E. coli TG1 cells are transformed with the expression vector library and plated on agar plates (LB+Amp+2% glucose). Single colonies are picked from the agar plates and grown in 1 mL 96-deep-well plates. VHH expression is induced by adding IPTG (1 mM). Periplasmic extracts (in a volume of ˜80 uL) are prepared according to standard methods and screened for binding to recombinant human and mouse DII4 in a ProteOn (BioRad, Hercules, Calif., USA) off-rate assay. […] Periplasmic extract of affinity matured clones is diluted 1/10 and injected across the “analyte channels” A1-A6. An average off-rate is calculated of the wild type clones present in the plate and served as a reference to calculate off-rate improvements.

recombinant human DLL4 [3] = target: T6, recombinant human DLL4 (human, UniProt Q9NR61 25-522); test: ProteOn off-rate screen, periplasmic extract, hDLL4 on chip
T6 construct: R&D Systems C-terminally His-tagged extracellular domain; also called rhDLL4; hDLL4; not shown: C-terminal His tag
Method: as §2

recombinant human DLL4 [4] = target: T6, recombinant human DLL4; test: cell-based or functional assay

T6 sequence (Q9NR61 25-522): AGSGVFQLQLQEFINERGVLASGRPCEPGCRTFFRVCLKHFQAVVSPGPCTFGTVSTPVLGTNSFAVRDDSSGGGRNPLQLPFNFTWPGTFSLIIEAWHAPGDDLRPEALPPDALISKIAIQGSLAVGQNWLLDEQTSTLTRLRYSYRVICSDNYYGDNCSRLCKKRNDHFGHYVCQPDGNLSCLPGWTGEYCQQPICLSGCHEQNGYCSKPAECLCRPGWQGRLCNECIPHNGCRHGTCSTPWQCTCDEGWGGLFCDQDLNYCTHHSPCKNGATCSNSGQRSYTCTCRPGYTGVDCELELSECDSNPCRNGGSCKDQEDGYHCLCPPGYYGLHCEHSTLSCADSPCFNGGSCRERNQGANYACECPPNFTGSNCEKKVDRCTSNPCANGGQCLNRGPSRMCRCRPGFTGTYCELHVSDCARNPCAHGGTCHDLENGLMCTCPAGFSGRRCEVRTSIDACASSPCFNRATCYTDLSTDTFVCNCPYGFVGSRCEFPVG
T5 sequence (Q9JI71 27-532): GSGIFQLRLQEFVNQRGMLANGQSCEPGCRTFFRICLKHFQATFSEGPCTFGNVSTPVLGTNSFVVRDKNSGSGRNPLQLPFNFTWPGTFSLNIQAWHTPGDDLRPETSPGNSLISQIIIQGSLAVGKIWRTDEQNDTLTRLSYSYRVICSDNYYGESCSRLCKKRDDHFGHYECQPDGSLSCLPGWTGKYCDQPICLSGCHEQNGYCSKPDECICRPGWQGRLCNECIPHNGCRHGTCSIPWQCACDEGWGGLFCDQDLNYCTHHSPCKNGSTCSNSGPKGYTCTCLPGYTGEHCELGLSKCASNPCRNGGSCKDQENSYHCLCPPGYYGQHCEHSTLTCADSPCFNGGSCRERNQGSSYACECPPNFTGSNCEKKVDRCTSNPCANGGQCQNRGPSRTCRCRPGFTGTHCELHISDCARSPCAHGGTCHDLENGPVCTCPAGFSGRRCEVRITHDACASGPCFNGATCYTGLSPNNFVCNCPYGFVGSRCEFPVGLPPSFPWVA

binding result [1] | binding result [2] | binding result (human DLL1) | binding result (human Jagged-1) | fold (off-rate improvement over DLLBII101G08) (recombinant mouse DLL4) [fold] | fold (off-rate improvement over DLLBII101G08) (recombinant human DLL4 [3]) [fold] | IC50 (nM) in the DLL4 proliferation assay (HUVEC, experiment 1) (recombinant human DLL4 [4]) [nM] | IC50 (nM) in the DLL4 proliferation assay (HUVEC, experiment 2) (recombinant human DLL4 [4]) [nM] | Binder
no binding | no binding |  |  |  |  |  |  | DLLBII129D08 (VHH, not shown: C-terminal c-myc and His6 tags) VHH: EVQLVESGGGLVQAGGSLRLSCAASGRTFSSYAMAWYRQAPGKEREYVAAIRWSGGTAYYADSVQGRFTISRDNAKNTVYLQMNSLKPEDTAVYYCANRAPDTRLEPYLYDYWGQGTQVTVSS
 |  | no binding | no binding | 1 | 1 | 401 | 112 | DLLBII101G08 (VHH, also called 101G8; DLLBII101G8; not shown: C-terminal c-myc tag and His6 tag) VHH: EVQLVESGGGLVQAGGSLRLSCAASGRTFSSYAMAWFRQAPGKEREFVAAIRWSGGTAYYADSVQGRFTISRDNAKNTVYLQMNSLKPEDTAVYYCANRAADTRLGPYEYDYWGQGTQVTVSS
 |  | no binding | no binding | 35 | 38 |  |  | DLLBII129D08 (VHH, not shown: C-terminal c-myc tag and (His)6 tag) VHH: EVQLVESGGGLVQAGGSLRLSCAASGRTFSSYAMAWYRQAPGKEREYVAAIRWSGGTAYYADSVQGRFTISRDNAKNTVYLQMNSLKPEDTAVYYCANRAPDTRLEPYLYDYWGQGTQVTVSS
no binding | no binding |  |  |  |  |  |  | DLLBII129B05 (VHH, not shown: C-terminal c-myc and His6 tags) VHH: EVQLVESGGGLVQAGGSLRLSCAASGRTFSSYAMAWYRQAPGKEREYVAAIRWSGGTAYYADSVQGRFTISRDNAKNTVYLQMNSLKPEDTAVYYCANRAPDTRLAPYEYDHWGQGTQVTVSS
 |  | no binding | no binding | 20 | 24 |  |  | DLLBII129B05 (VHH, not shown: C-terminal c-myc tag and (His)6 tag) VHH: EVQLVESGGGLVQAGGSLRLSCAASGRTFSSYAMAWYRQAPGKEREYVAAIRWSGGTAYYADSVQGRFTISRDNAKNTVYLQMNSLKPEDTAVYYCANRAPDTRLAPYEYDHWGQGTQVTVSS
 |  | no binding | no binding | 26 | 28 |  |  | DLLBII129E11 (VHH, not shown: C-terminal c-myc tag and (His)6 tag) VHH: EVQLVESGGGLVQAGGSLRLSCAASGRTFSSYAMAWYRQAPGKEREYVAAIRWSGGTAYYADSVQGRFTISRDNAKNTVYLQMNSLKPEDTAVYYCANRAPDTRLRPYLYDYWGQGTQVTVSS
no binding | no binding |  |  |  |  |  |  | DLLBII129E11 (VHH, not shown: C-terminal c-myc and His6 tags) VHH: EVQLVESGGGLVQAGGSLRLSCAASGRTFSSYAMAWYRQAPGKEREYVAAIRWSGGTAYYADSVQGRFTISRDNAKNTVYLQMNSLKPEDTAVYYCANRAPDTRLRPYLYDYWGQGTQVTVSS
 |  | no binding | no binding |  |  | 10000 |  | DLLBII115A05 (VHH, also called 115A5; DLLBII115A5; not shown: C-terminal c-myc tag and His6 tag) VHH: EVQLVESGGGLVQPGGSLRLSCAASGFTFGSYDMSWVRRSPGKGPEWVSSINSGGGSTYYADFVKGRFTISRDNAKNTLYLQMNSLKPEDTAVYYCAADRYIRARQGDYWGAYEYDYWGQGTQVTVSS
no binding | no binding |  |  |  |  |  |  | DLLBII015 (VHH, not shown: C-terminal c-myc and His6 tags) VHH: EVQLVESGGGLVQPGGSLRLSCAASGFTIGSYDMSWVRRSPGKGPEWVSAINSGGGSTYYADYVKGRFTISRDNAKNTLYLQMNSLKPEDTAVYYCAADRYIWARQGEYWGAYAYDYWGQGTQVTVSS
 |  |  |  |  |  | 11 | 6.8 | DLLBII56A09 (VHH, not shown: small tags and cut ends) VHH: EVQLVESGGGLVQPGGSLRLSCAASGFTFDDYAIGWFRQAPGKEPEGISCISSSGGITYYADSVKGRFTTSRDNAKNTVYLQMNSLKPEDTAVYYCATPGIAACRGIHYTGQGTQVTVSS
